One series deals with T1, Sc.Ara1 (Saccharomyces cerevisiae, UniProt P38115).
T1 construct: N-terminal His tag (pET28a)
In words: dehydrogenase activity, microplate. The following applies: NAD+ or NADP+, 10 mM cofactor, 10 mM sugar; 37 °C. Type of series: biochemical.

Another series has as its target T2, Bm.Fdh (Burkholderia multivorans, UniProt A0A0H3KNE7).
T2 construct: gene BMULJ_04919; N-terminal His tag (pET28a)
In words: dehydrogenase activity, microplate. It counts as biochemical. The following applies: NAD+ or NADP+, 10 mM cofactor, 10 mM sugar; 37 °C.

In the next series the target is T3, Pc.TadH (Trinickia caryophylli, UniProt A0A1X7DDC2).
T3 construct: gene SAMN06295900_10348; N-terminal His tag (pET28a)
T3 sequence (A0A1X7DDC2 1-334): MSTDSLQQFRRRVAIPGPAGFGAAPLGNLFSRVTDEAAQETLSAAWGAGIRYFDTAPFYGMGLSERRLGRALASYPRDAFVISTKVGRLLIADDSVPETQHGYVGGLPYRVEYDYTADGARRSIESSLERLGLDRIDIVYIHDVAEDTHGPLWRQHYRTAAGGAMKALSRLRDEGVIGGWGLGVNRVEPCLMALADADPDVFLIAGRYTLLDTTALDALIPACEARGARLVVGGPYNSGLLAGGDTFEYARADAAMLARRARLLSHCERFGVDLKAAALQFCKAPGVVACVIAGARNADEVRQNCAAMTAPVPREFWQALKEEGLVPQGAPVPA
In words: dehydrogenase activity, microplate. Type of series: biochemical. Conditions: NAD+ or NADP+; 37 °C.

In the next series the test system is T4, Hh.AraD.
T4 construct: gene E2K99_19880
The following applies: 37 °C.

The next series addresses T5, Go.Adh (Gluconobacter oxydans, UniProt Q5FU50).
T5 construct: gene GOX0313; expressed from pEXT20 in E. coli TW64; protein extract
T5 sequence (Q5FU50 1-343): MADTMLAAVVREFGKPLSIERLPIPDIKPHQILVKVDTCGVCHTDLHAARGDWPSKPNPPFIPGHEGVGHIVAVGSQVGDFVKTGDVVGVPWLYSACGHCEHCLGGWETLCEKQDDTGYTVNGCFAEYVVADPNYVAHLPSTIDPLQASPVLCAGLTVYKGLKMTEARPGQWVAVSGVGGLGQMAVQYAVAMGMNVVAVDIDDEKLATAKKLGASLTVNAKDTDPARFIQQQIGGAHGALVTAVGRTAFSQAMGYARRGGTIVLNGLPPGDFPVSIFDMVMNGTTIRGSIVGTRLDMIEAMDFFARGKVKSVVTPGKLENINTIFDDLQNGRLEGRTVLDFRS
In words: ethylene glycol dehydrogenase activity in protein extract; empty-plasmid extract inactive. It counts as biochemical. The following applies: 50 mM ethylene glycol; NAD+.

A further series concerns the target T6, Ec.FucO (Escherichia coli, UniProt P0A9S1).
T6 construct: expressed from pEXT20 in E. coli TW64; protein extract
T6 sequence (P0A9S1 1-382): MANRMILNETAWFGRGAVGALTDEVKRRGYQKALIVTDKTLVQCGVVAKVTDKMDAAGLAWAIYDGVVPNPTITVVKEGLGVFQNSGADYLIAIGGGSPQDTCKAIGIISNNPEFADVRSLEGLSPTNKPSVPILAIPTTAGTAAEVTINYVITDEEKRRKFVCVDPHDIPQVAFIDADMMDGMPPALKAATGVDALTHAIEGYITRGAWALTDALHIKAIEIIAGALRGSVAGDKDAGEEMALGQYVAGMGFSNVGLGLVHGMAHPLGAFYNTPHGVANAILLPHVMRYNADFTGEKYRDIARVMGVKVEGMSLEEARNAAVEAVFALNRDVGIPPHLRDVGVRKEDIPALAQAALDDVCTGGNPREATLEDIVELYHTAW
The description is as above. It counts as biochemical. Conditions: 50 mM ethylene glycol; NAD+.

Substrate in series [1]: O=C1OC[C@@H](O)[C@@H]1O
In words: lactonase kinetics, Michaelis-Menten fit. It counts as biochemical, Thermogutta terrifontis. Conditions: 37 °C.

Substrate in series [2]: C[C@H](O)[C@H]1OC(=O)[C@@H](O)[C@@H]1O
In words: lactonase kinetics, Michaelis-Menten fit. The following applies: 37 °C. It counts as biochemical, Thermogutta terrifontis.

Substrate in the series “purified protein”: O=C(O)[C@@H](O)[C@H](O)CO
In words: purified protein. Conditions: 37 °C.

5 molecules from paper PMC10079672, “Construction of a synthetic metabolic pathway for biosynthesis of 2,4-dihydroxybutyric acid from ethylene glycol” (Nature Communications, 2023) can be followed below.

T2 sequence (A0A0H3KNE7 whole entry): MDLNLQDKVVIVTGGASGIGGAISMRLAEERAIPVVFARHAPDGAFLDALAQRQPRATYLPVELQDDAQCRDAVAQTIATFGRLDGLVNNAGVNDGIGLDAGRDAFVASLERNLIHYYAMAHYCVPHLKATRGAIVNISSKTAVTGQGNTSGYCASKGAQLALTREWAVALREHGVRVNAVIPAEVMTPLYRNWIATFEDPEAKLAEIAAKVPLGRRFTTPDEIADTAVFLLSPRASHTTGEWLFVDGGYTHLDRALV

With `O=C[C@@H](O)[C@H](O)CO` [D-threose], the specific activity entry on Sc.Ara1 is “Sc.Ara1, Pc.TadH and Bm.Fdh displayed measurable activity on D-threose”; at Bm.Fdh, “Sc.Ara1, Pc.TadH and Bm.Fdh displayed measurable activity on D-threose”. For the same molecule, the “specific activity (no saturation up to 50 mM)” value on Pc.TadH was “Sc.Ara1, Pc.TadH and Bm.Fdh displayed measurable activity on D-threose”.

In the case of `O=C(O)[C@@H](O)[C@H](O)CO` [D-threonate], in the series with Hh.AraD, the Km is 1.21 mM.

Take `OCCO` [ethylene glycol]: the activity result at Go.Adh and on Ec.FucO was “all candidate enzymes were active on EG” each time.

B1: Tt.Lac11 (Thermogutta terrifontis) (protein)
chain: MRKLLGSSAIHVLSRRTGYGMYFLILALGVATQVVFGAEPSQNPSEKVAWIERADPGLDDLIAPDAQVEVLAEGFEWSEGPVWIPEGGYLLFSDVPKNTIYRWKEGQGIDIFLKPSGYTGFRERGGESGSNGLALDRQGRLLLCQHGDRRVARWEKGCFITLADQYEGKPLNSPNDLVVKSNGDIYFTDPPYGMTPEAQRDPNALGFCGVYRISADGKLTLLVRDMTRPNGIAFSPDEKTLYVAQSDPQRPLWMAFPVREDGTLGEGKVFFDAKPWQQSGLPGLPDGMKVDQKGNLFATGPGGVNIFRPDGTFLGRIRVKVPTANCAFGDDGSTLYITADMYLLRVKTKTKGLGF
notes: full-length with predicted N-terminal signal peptide; hexa-His tag (pET28a)
Consider B1, for which, in [1], the Km is 2.92 (±0.13) mM, the Vmax is 1.76 µmol/min/mg and the Vmax/Km was 603 µL/min/mg. For the same molecule, the Km in [2] is on record as 0.84 (±0.06) × 10^-3 M.

B2: Aa.AraD (Paracidovorax avenae ATCC 19860) (protein)
chain: MSTDALATQSLLILNDRDNVAVARTELGAGMELRLAGGEVLEVMATVPAGHKIALRPIAKGDAVLKYGQVIGAASTPIGAGEHVHVHNVEMGDSSPTHLVGRAYVPTDPVEQPATFMGYVRADGRVGTRNYIGVISSVNCSATVCKAIAQAFTGPALGAYPGVDGVVAITHGTGCGMSGEGEGIELLRRTLSGYIAHPNFAAVLVIGLGCEVNQVEGLTGRLPLPEGRVRTMTIQDAGGTREAIAQGIDIVRDMAAAASGARRTQVPASHLVVGLQCGGSDGYSGISANPVLGAAVDMLVRHGGTAILSETPEIYGAEHLLTARAASAEVAERLMARLAWWEAYTQRNGANMNNNPSPGNKAGGITTILEKSLGAVAKGGGSGLMDVVEYAQPVHSRGLVFMDTPGYDPVSATGQVAGGANLICFTTGRGSTYGCKPTPSLKLATNTALFRNMGMDMDFNAGDVVDGTLGIAQAGRHLFELMLATASGDRTLSETHGLGDNEFVPWQLGAVM
With B2, in the series “purified protein”, the Km is 1.95 (±0.53) mM, the maximum rate (Vmax) amounted to 0.12 µmol/min/mg and the Vmax/Km was determined as 62 µL/min/mg.
